From patent publication US20220403048A1 (CANCER RESEARCH TECHNOLOGY, published 2022)
Where a chain is given by its changes, count along the chain named.

B1: C0020187 recombinant human IgG1 (antibody, V domains shown)
VH: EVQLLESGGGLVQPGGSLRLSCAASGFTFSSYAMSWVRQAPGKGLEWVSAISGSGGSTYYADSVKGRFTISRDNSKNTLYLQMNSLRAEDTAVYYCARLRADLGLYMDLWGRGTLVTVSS
VL: QSVLTQPPSVSAAPGQKVTISCSGSSSNIGNHYVSWYQQLPGTAPKLLIYDNSERPSGIPDRFSGSKSGTSATLGITGLQTGDEADYYCGTWDSSLSALVFGGGTKLTVL
B2: C0021158 recombinant human IgG1 (antibody, V domains shown)
VH: EVQLLESGGGLVQPGGSLRLSCAASGFTFRYEVAAWVRQAPGKGLEWVSAISGPIPKGYYADSVKGRFTISRDNSKNTLYLQMNSLRAEDTAVYYCARLRADLGLYMDLWGRGTLVTVSS
VL: B1 VL with P56T, S57A, I59V, S94E, S95L, L96T, A98N
B3: C0021158-fgl2 recombinant human IgG1 (antibody, V domains shown)
VH: B2 VH
VL: B1 VL with S53A, P56T, S57A, S94E, S95L, L96T, A98N
B4: C0020065 recombinant human IgG1 (antibody, V domains shown)
VH: GVNLRESGGGVVQPGRSLRLSCAASGFTFSSYAMHWVRQAPGKGLEWVAVISYDGSNKYYVDSVKGRFTISRDNSKNTLYLQMNSLRAEDTAVYYCARDSSQLWFDYWGRGTLVTVSS
VL: QSVVTQPPSVSGAPGQRVTISCTGSSSNIGTGYDVHWYQQLPGTAPKLLIYGNSNRPSGVPDRFSGSKSGTSASLAITGLQAEDEADYYCQSYDSSLSGSVVFGGGTQLTVL
B5: C0020065 scFv (scFv, V domains shown)
VH: B4 VH
VL: B4 VL
notes: c-myc tagged scFv
B6: C0021158 Fab (Fab, V domains shown)
VH: B2 VH
VL: B1 VL with P56T, S57A, I59V, S94E, S95L, L96T, A98N
notes: Human Fab
B7: C0021181 Fab (Fab, V domains shown)
VH: EVQLLESGGGLVRPGGSLRLSCAASEFTFRYDYHVWVRQAPGKGLEWVSAISGSGGSTYYADSVKSRFTISRDNSKNTLYLQMNSLRAEDTAVYYCARLRADLGLYMDLWGRGTLVTVSS
VL: B1 VL with T19A, I20V, N31S, P56T, S94E, S95L, L96T, A98N, K106R
notes: Human Fab
B8: C0021177 Fab (Fab, V domains shown)
VH: B2 VH with I55A
VL: QSELTQPPTASAAPGQKVTISCSGSSSNIGNHYVSWYQQLPGTAPKLLIYDTTVLSSGIPDRFSGSKSGTSATLGITGLQTGDEADYYCGTWDELTSNLVFGGGTKLTVL
notes: Human Fab
B9: C0021180 Fab (Fab, V domains shown)
VH: B2 VH
VL: QSVLTQPPTVSAAPGRKVTISCSGSSSNIGDHHVSWYQQLPGAAPKLLIYDTDHMASGIPDRFSGSRSGTSATLGITGLQTGDEADYYCGTWDSSLSALVFGGGTKLTVL
notes: Human Fab

How the values were obtained:
[1] = target: T1, THP-1 lysate derived human trimeric ARG2 (human, UniProt P78540 23-354, limits assumed); assay: cell-based or functional assay
T1 sequence (looked up): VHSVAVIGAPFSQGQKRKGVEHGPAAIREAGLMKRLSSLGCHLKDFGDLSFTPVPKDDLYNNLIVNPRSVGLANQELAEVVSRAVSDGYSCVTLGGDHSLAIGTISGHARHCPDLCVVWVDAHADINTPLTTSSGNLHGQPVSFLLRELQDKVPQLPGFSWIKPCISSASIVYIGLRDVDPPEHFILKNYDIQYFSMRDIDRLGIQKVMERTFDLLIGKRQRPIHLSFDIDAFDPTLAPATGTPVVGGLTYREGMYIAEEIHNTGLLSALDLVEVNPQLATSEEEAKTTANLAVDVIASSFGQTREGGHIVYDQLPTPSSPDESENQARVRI

[2] = target: T2, recombinant human monomeric ARG2 (human, UniProt P78540 23-354); assay: cell-based or functional assay
T2 sequence (looked up): T1 sequence (looked up) with E253Q

[3] = target: T3, recombinant human trimeric ARG2 enzyme (construct not given) (human, UniProt P78540 23-354); assay: cell-based or functional assay
T3 sequence (looked up): T1 sequence (looked up)

[4] = target: T1, THP-1 lysate derived human trimeric ARG2; assay: cell-based or functional assay; remark: listed apart in the source
[5] = target: T4, biotinylated recombinant human trimeric ARG1 enzyme (Avi-huARG1-His10) (human, UniProt P05089 1-322, biotinylated in HTRF and streptavidin BLI assays); assay: HTRF direct binding assay, biotinylated recombinant human trimeric ARG1
T4 construct: also called Human ARG1; recombinant ARG1
T4 sequence: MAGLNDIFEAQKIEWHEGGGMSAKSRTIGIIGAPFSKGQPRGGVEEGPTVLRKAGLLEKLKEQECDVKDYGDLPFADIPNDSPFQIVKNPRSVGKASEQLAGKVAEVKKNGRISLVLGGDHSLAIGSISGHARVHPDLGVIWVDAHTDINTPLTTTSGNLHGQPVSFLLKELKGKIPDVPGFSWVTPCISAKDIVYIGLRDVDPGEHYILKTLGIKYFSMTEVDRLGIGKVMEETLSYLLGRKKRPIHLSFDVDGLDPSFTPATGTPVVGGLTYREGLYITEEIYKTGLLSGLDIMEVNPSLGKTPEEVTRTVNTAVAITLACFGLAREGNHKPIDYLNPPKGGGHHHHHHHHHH

[6] = target: T5, biotinylated recombinant cynomolgus monkey trimeric ARG2 enzyme (Avi-cynoARG2-His10) (cynomolgus monkey, UniProt P78540 23-354 (human entry), biotinylated); assay: HTRF direct binding assay, biotinylated recombinant cynomolgus trimeric ARG2, streptavidin cryptate and anti-c-myc-XL665, Delta F %
T5 construct: also called cynomolgus ARG2
T5 chain: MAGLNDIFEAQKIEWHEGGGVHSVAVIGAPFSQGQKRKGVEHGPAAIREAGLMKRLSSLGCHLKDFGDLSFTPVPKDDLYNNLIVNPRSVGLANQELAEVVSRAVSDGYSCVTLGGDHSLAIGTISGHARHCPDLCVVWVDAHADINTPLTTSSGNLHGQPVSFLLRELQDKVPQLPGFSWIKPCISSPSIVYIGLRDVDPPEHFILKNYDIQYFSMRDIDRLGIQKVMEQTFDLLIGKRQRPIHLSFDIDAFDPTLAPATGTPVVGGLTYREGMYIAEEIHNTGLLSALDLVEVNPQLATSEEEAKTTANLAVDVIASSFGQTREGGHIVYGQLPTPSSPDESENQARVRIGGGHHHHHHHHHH

[7] = target: T5, biotinylated recombinant cynomolgus …; assay: BLI (OctetRED) extended assay, biotinylated cyno ARG2 on streptavidin, Fab as analyte, 1:1 fit
Method: (§1) The affinities of the second-generation antibodies to human ARG2 were measured on the OctetRED system. A screening assay which stably captures His-tagged ARG2 as the ligand on an anti-His surface was utilised to screen the second-generation candidates as Fabs at an analyte range of 1.8 to 120 nM, with an association time of 5 minutes and a dissociation time of 10 minutes. Sensors were regenerated using 10 mM glycine pH 1.5 after each cycle. Based on this assay, six candidates with estimated affinities in the sub-nanomolar range were identified, and they were further profiled using an extended assay which is more suitable for antibodies of high affinities. In the extended assay, the association and dissociation times were extended to 10 and 40 minutes respectively, using a lower Fab analyte titration range of 0.47 to 30 nM, on a streptavidin surface which captures bio-ARG2 as the ligand. The sensorgrams were reference subtracted and fitted to the 1:1 binding model to estimate their binding affinities using the Octet analysis software.
The affinities of some of these antibodies to cynomolgus ARG2 were determined using the same assay, and the derived kinetic parameters are shown in Table 21.

[8] = target: T4, biotinylated recombinant human trimeric …; assay: BLI (OctetRED), His-tagged ligand on anti-His surface
[9] = target: T6, biotinylated recombinant human trimeric ARG2 enzyme (Avi-huARG2-His10) (human, UniProt P78540 23-354, biotinylated); assay: BLI (OctetRED) extended assay, bio-ARG2 on streptavidin, Fab as analyte, 1:1 fit
T6 construct: also called avi-Arg2-His10; bio-ARG2
T6 chain: T5 chain with P189A, Q231R, E273H, R325K, G333D
Method: as §1

| Binder | THP-1 ARG2 EIA IC50 [1] | Kd [7] | koff [7] | kon [7] | binding result [8] | Kd [9] | koff [9] | kon [9] | also measured |
| --- | --- | --- | --- | --- | --- | --- | --- | --- | --- |
| B1 | 649 nM |  |  |  |  |  |  |  | IC50 (read off the curve) [2]: ~4 nM |
| B2 | 2.3 nM |  |  |  |  |  |  |  | EC50, In Presence of rhARG2 (T cell proliferation) [3]: 0.157 µM; Maximum % Proliferation, In Presence of rhARG2 [3]: 90%; THP-1 lysate ARG2 EIA IC50 [4]: 5.36 nM |
| B3 | 3 nM |  |  |  |  |  |  |  |  |
| B4 |  |  |  |  |  |  |  |  | IC50 (read off the curve) [2]: ~6 nM |
| B5 |  |  |  |  |  |  |  |  | binding result [5]: no binding (tested: log M -6 (1e-6 M)); binding result [6]: binds |
| B6 |  | 0.108 nM | 4.64e-05 s⁻¹ | 429000 M⁻¹ s⁻¹ | no binding (tested: up to 120 nM Fab) | 0.173 nM | 4.54e-05 s⁻¹ | 262000 M⁻¹ s⁻¹ |  |
| B7 |  | 0.173 nM | 4.43e-05 s⁻¹ | 257000 M⁻¹ s⁻¹ | no binding (tested: up to 120 nM Fab) | 0.288 nM | 4.17e-05 s⁻¹ | 145000 M⁻¹ s⁻¹ |  |
| B8 |  | 0.0754 nM | 3.12e-05 s⁻¹ | 414000 M⁻¹ s⁻¹ | no binding (tested: up to 120 nM Fab) | 0.173 nM | 3.51e-05 s⁻¹ | 202000 M⁻¹ s⁻¹ |  |
| B9 |  | 0.353 nM | 0.000135 s⁻¹ | 381000 M⁻¹ s⁻¹ | no binding (tested: up to 120 nM Fab) | 0.437 nM | 0.000122 s⁻¹ | 278000 M⁻¹ s⁻¹ |  |
